In the supplement of paper PMC9170038:

Tested on: MS2 coat protein
Assay: apparent KD of MS2 coat protein; designed switch direction (-1 OFF switch, 1 ON switch): 1; higher = weaker reporter binding
Summary of the method: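 On Illumina chips, designed RNA switches with common flanks were made by stalled E. coli RNA polymerase. Titrations with SNAP-549-labelled MS2 coat protein, doubling from 0.7 or 1.5 nM to 3 µM, were done with no input, with 200 uM small-molecule ligand, or with an oligonucleotide input. Apparent KD is the median per design over clusters, from curve fits of normalised cluster fluorescence.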

[1] = Eterna round: R95, input ligand: FMN 200 uM
[2] = Eterna round: R95, input ligand: microRNA oligo, concentration not stated
[3] = Eterna round: R95, input ligand: none
[4] = input ligand: microRNA oligo, concentration not stated

Sequence | apparent KD of MS2 coat protein [1] [nM] | apparent KD of MS2 coat protein [2] [nM] | apparent KD of MS2 coat protein [3] [nM] | apparent KD of MS2 coat protein (input ligand: FMN 200 uM) [nM] | apparent KD of MS2 coat protein [4] [nM] | apparent KD of MS2 coat protein (input ligand: none) [nM]
GGAGCCGGUACUGAGGAUAUUCAUCUUAAAACAUGAGGAUCACCCAUGUAGGCCAGAAGGCCUUGGGAGAAGGCAGAUCGGCUCC [Biseusra - 7] (puzzle: Same State 2) | 20 | 52.2 | 66 |  |  | 
GAGAGAUGAUUAGGAUAUACGGUGAUAAUGAUAGUAGAAGGAAUUGACAUGAGGAUCACCCAUGUGGGAAUAAUCCAGAGAGAG [Parity 22 - Jieux - Same State NG 1] (Eterna round: R96, puzzle: Same State NG 1) |  |  |  | 100 | 127 | 162
AUAAAACAUGAGGAUCACCCAUGUGGCGCUGACACAGGAUAUCAUGCGGAACUGGACGUAUGAGAAGGGUGAUGCG [Diateedza] (puzzle: Same State 1) | 53 | 216 | 419 |  |  | 
AAGAAACAUGAGGAUCACCCAUGUAGAAAUAUGGGAGGAUAUACGAAGACGAAAGUCAAAGUAGAAGGCCUAAAAG [Mat - Same State 1 - Eli mod - D107] (Eterna round: R96, puzzle: Same State 1) |  |  |  | 23.4 | 54 | 110
ACAUGAGACCAAGGAUAUGUUGUACCUACAUGUGACAUGAGGAUCACCCAUGUGGUAAGUAUGAGACAGAAGGUGGAGAUAUGU [Equivalence 27 - Jieux - Same State NG 2] (Eterna round: R96, puzzle: Same State NG 2) |  |  |  | 16.9 | 44.3 | 33.2
GCUCGACUGAUGGCCUACAUGAGGAUCACCCAUGUGAUUGGGCAGGAUAUCUAGAUGCAGGAUGUAGAGAAGGGCCGGUCGAGC [SameState NG3 #46] (Eterna round: R96, puzzle: Same State NG 3) |  |  |  | 472 | 501 | 475
CCAACAUACAAUUUAAGAUCACAUGAGGAUCACCCAUGUAUGCAGGAUAUCAGCUCGAUUAGAGCUGAGAAGGGCAAUUUAAUU [SSNG3/1-A2] (Eterna round: R96, puzzle: Same State NG 3) |  |  |  | 89.6 | 151 | 216
CGUGAACAUGAGGAUCACCCAUGUGAAAAACAUAGAGGAUAUGUCACGUGAGUGUAAAAGACAGAAGGCUAUCGUG [Mod 3 of Round 1 starryjess' Mod pf Nando] (Eterna round: R96, puzzle: Same State 1) |  |  |  | 38.1 | 78.3 | 77.6
GAGUAGUUAAAAGGAUAUUGAUUAUUGUAGGAUCAAGAAGGUUUUAACAUGAGGAUCACCCAUGUAGGACUAUUCCUGUGUAUC [Parity 90 - Jieux - Same State NG 1] (Eterna round: R96, puzzle: Same State NG 1) |  |  |  |  | 12 | 
UAAAUAAUGUAAGGAUAUACAUGAGGAAUUCUCGUAGAAGGUACAUGACAUGAGGAUCACCCAUGUAUCGCUCAGUAGAGCGUA [Mat - Same State NG 1 - JL mod - D27] (Eterna round: R96, puzzle: Same State NG 1) |  |  |  |  | 48.3 | 
AAUAAACAUGAGGAUCACCCAUGUAGUGCUUUAGCAGGAUAUGUGAGGAUCAAAUCCAUGGCAGAAGGGUUAUGGC [Inondiorbi] (puzzle: Same State 1) | 20.1 | 43 | 67.1 |  |  | 
GUAGCAUACCGAGGAUAUUCAUACCGGAAACGGACAUGAGGAUCACCCAUGUGGCGAAAGCCUUGGGAGAAGGCGGAAUGCUAC [Xeonanis - 20 Mod75] (Eterna round: R96, puzzle: Same State NG 2) |  |  |  | 18.4 | 341 | 675
GUUACAUGAGGAUCACCCAUGUGUGUGUGGGAGUGAGUGGCUUAGGAUAUCUAUGAUUUAAGUUAAGAGAAGGGAGAUUGUUGU [SS-NG3-LRO04] (Eterna round: R96, puzzle: Same State NG 3) |  |  |  | 441 | 330 | 344
UUGCUCGUGUGAGGAUAUGCAGCCGUUUCGGCUGCAGAAGGUACUAUAAUACAUGAGGAUCACCCAUGUCUCUGUUGUUUAGUG [salish99_SSNG1_r04_928] (Eterna round: R96, puzzle: Same State NG 1) |  |  |  | 34 | 27.8 | 39.2
UGUUGUAUUACAGGAUAUCUAUUAGUUGUAUUUAGAGAAGGGUAUUCACAUGAGGAUCACCCAUGUAUAUACGAGGAAGUUGUG [JMF's solution 92] (Eterna round: R96, puzzle: Same State NG 1) |  |  |  | 79.8 | 44.1 | 59.7
GAGUAGUUAAAAGGAUAUUGAUUAUUGUAGGAUCAAGAAGGUUUUAACAUGAGGAUCACCCAUGUAGGACUAUUCCUGUGAAAA [Parity 92 - Jieux - Same State NG 1] (Eterna round: R96, puzzle: Same State NG 1) |  |  |  |  | 10.9 | 
AGUCCAGCGAAAGCUGGACAAAAGCAUGUACAUGAGGAUCACCCAUGUUCAUGUACAAGUUUUUUGCUCGUUUUAAA [JL mod - D95 - 18] (puzzle: Sensor for hsa-mir-208a) | 37.8 | 10.3 | 45.8 |  |  | 
AUAAGAAACACAGGAUAUACCGCACUUAACACGGUAGAAGGGUGGGACAUGAGGAUCACCCAUGUGGUCCGGGCGCCGGACCGC [Geenusrior] (Eterna round: R96, puzzle: Same State NG 1) |  |  |  | 711 | 27.8 | 329
GUUAGGAAUCUAGCAAACAUGAGGAUCACCCAUGUUAGUGGGAAGGAUAUGGUACAGAAACUGUACCAGAAGGUCUUAUUAAUU [Omei SS(NG) 3 AV2] (Eterna round: R96, puzzle: Same State NG 3) |  |  |  | 58.3 | 39.1 | 55.7
AGAUGUUAAUUAGGAUAUGGGCACAUGAGGAUCACCCAUGUAACGUAGAUACGAUGUGGUCAAGUCUAGAAGGGAUAGCUAACA [SameState NG2 #77] (Eterna round: R96, puzzle: Same State NG 2) |  |  |  | 72.5 | 59.3 | 70.6
CCGGAUAAUGGAGGAUAUGGAGCCUUAUUGGCUCCAGAAGGCUAACAUGAGGAUCACCCAUGUUUUCCGGCGGUCAAUAGACCG [Eli NG1ss - 63] (Eterna round: R96, puzzle: Same State NG 1) |  |  |  | 10 | 11.4 | 18.2
GCGAGCGUACUUGCAGACAUGAGGAUCACCCAUGUAACUGGGUAGGAUAUGGUACCGUUUCGGUACCAGAAGGACUUAUGAAAG [JL SSNG3 1.50] (Eterna round: R96, puzzle: Same State NG 3) |  |  |  | 67 | 35 | 54.4
AAAAAACAUGAGGAUCACCCAUGUCAAAAGACAUGAGGAUAUGUACAGACUUCGGUCUGUACAGAAGGCAUGAAAA [SS1 - 1011] (Eterna round: R96, puzzle: Same State 1) |  |  |  |  | 359 | 
